From the RNAGym collection of RNA variant scans (doi:10.1038/ncomms11558)

B1: mRNA-splicing (parent)
chain: GAUCCAGAUCUAACUUGGGGUGGCUUUGUCUUCUUCUUUUGCCAAUUCCACUAAUUGUUUGGG

Variants of: B1
Test: exon inclusion enrichment score (log2 ratio to wild type); higher = more inclusion; FAS exon 6 minigene, HEK293

Row | Variant | exon inclusion enrichment score
1 | GAUCCAGAUCUAACUUGGGGUGGCUUUGUCUUCUUCUUUUGCCAAUUCCACUAAUUGGUUGGG [U58G] | -0.27
2 | GAUCCAGAUCUAACUUGGGGUGGCUUUGUCUUCUUCUUUUGCCAAUUCCACUAAUUGCUUGGG [U58C] | -0.116
3 | GAUCCAGAUCUAACUUGGGGUGGCUUUGUCUUCUUCUUUUGCCAAUUCCACUAAUUGAUUGGG [U58A] | 0.099
4 | GAUCCAGAUCUAACUUGGGGUGGCUUUGUCUUCUUCUUUUGCCAAUUCCACUAAUUGUUCGGG [U60C] | -0.19
5 | GAUCCAGAUCUAACUUGGGGUGGCUUUGUCUUCUUCUUUUGCCAAUUCCACUAAUUGUUGGGG [U60G] | -0.709
6 | GAUCCAGAUCUAACUUGGGGUGGCUUUGUCUUCUUCUUUUGCCAAUUCCACUAAUUGUUAGGG [U60A] | -2.55
7 | GAUCCAGAUCUAACUUGGGGUGGCUUUGUCUUCUUCUUUUGCCAAUUCCACUAAUUGUUUAGG [G61A] | -1.32
8 | GAUCCAGAUCUAACUUGGGGUGGCUUUGUCUUCUUCUUUUGCCAAUUCCACUAAUUGUUUCGG [G61C] | 0.061
9 | GAUCCAGAUCUAACUUGGGGUGGCUUUGUCUUCUUCUUUUGCCAAUUCCACUAAUUGUUUUGG [G61U] | -0.154
10 | GAUCCAGAUCUAACUUGGGGUGGCUUUGUCUUCUUCUUUUGCCAAUUCCACUAAUUUUUUGGG [G57U] | 0.003
11 | GAUCCAGAUCUAACUUGGGGUGGCUUUGUCUUCUUCUUUUGCCAAUUCCACUAAUUGUCUGGG [U59C] | -0.032
12 | GAUCCAGAUCUAACUUGGGGUGGCUUUGUCUUCUUCUUUUGCCAAUUCCACUAAUUGUGUGGG [U59G] | -0.228
13 | GAUCCAGAUCUAACUUGGGGUGGCUUUGUCUUCUUCUUUUGCCAAUUCCACUAAUUGUAUGGG [U59A] | -0.31
14 | GAUCCAGAUCUAACUUGGGGUGGCUUUGUCUUCUUCUUUUGCCAAUUCCACUAAUUGUUUGUG [G62U] | -0.581
15 | GAUCCAGAUCUAACUUGGGGUGGCUUUGUCUUCUUCUUUUGCCAAUUCCACUAAUUGUUUGAG [G62A] | -0.115
16 | GAUCCAGAUCUAACUUGGGGUGGCUUUGUCUUCUUCUUUUGCCAAUUCCACUAAUUGUUUGCG [G62C] | -0.199
17 | GAUCCAGAUCUAACUUGGGGUGGCUUUGUCUUCUUCUUUUGCCAAUUCCACUAAUUGUUUGGU [G63U] | -5.1
18 | GAUCCAGAUCUAACUUGGGGUGGCUUUGUCUUCUUCUUUUGCCAAUUCCACUAAUUGUUUGGA [G63A] | -5.7
19 | GAUCCAGAUCUAACUUGGGGUGGCUUUGUCUUCUUCUUUUGCCAAUUCCACUAAUUGUUUGGC [G63C] | -6.23
